From patent publication US20110086026A1 (ROCHE PALO ALTO, published 2011)
Numbering of substitutions follows the chain as printed.

T1: hIL-13Rα1:hFc chimeric protein (R&D Systems, UK) (human, UniProt P78552 22-343)
T1 construct: extracellular domain; Bought; also called chimeric hIL-13Rα1:hFc; not shown: human Fc (hFc) of the bought chimera
T1 sequence (looked up): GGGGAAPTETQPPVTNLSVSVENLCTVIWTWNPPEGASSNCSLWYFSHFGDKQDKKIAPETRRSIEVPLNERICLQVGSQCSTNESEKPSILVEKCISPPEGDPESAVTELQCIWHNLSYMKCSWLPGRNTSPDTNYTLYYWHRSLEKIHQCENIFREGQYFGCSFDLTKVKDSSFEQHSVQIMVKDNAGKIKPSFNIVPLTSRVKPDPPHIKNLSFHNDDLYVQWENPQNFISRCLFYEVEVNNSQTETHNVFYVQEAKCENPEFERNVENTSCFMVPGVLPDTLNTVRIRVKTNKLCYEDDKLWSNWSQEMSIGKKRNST

T2: extracellular domain of hIL-13Rα1 cleaved from hIL-13Rα1:hFc chimeric protein (human, UniProt P78552 22-343)
T2 construct: extracellular domain; also called Cleaved hIL-13Rα1 molecules (MW 40 kDa)
T2 sequence (looked up): T1 sequence (looked up)

T3: extracellular domain of IL-13Rα1 (R&D Systems, UK) (human, UniProt P78552 22-343)
T3 construct: extracellular domain; Bought; also called recombinant human IL-13Rα1 polypeptide; immobilized extracellular domains of human IL-13Rα1
T3 sequence (looked up): T1 sequence (looked up)

B1: HuMab LC5002-007 (antibody, human IgG1, V domains shown)
VH: QVQLVQSGAEVKKPGSSVKVSCKVSGGTFSSYAFSWVRQAPGQGLEWMGRIIPILGRTNYAQKFQGRVTITADKSTSTAYMEVSSLRSEDTAVYYCAREGETLDYFYYGMDVWGQGTTVTVSS
VL: EIVLTQSPGTLSLSPGERATLSCRASQSVSSSYLAWYQQKPGQAPRLLIYGASSRAIGIPDRFSGSGSGTDFTLTISRLEPEDFAVYYCQHYGSSLTFGGGTKVEIK
notes: Human IgG1 kappa from a HuMab mouse hybridoma; Only the variable domains are tied to this antibody; also called hu-MAB<h-IL-13R alpha>LC.5002-007 (DSM ACC2712)
B2: HuMab LC5002-005 (antibody, V domains shown)
VH: EVQVLDSGGGLVQPGGSLRLSCTASGFTFRLYTMSWVRQTPGRGLEWVSGISGSGLSTYFADSVKGRFTISRDNSKNTVYLQMNSLRAEDTAVYYCAKEGDWIYFDSWGQGTLVIVSS
VL: DIQMTQSPSSLSASVGDRVTITCRASQGISSWLAWYQQKPEKAPKSLIYAASSLQSGVPSRFSGSGSGTDFTLTISSLQPEDFATYYCQQYNSHPPTFGQGTKLEIK
notes: Only the variable domains are tied to this antibody; also called hu-MAB<h-IL-13Ralpha>LC.5002-005 (DSM ACC2711)
B3: HuMab LC5002-003 (antibody, V domains shown)
VH: EVQLLESGGDLIQPGGSLRLSCAASGFTFNIYAMNWVRQAPGKGLEWVSVISGRGITTYYADSVKGRFTISRDNSKNTLYLQMDSLRAEDTAVYYCAKGSSYWTDFDYWGQGTLVTVSS
VL: B2 VL with H94Y, P96W, L104V
notes: Human IgG1 kappa from a HuMab mouse hybridoma; Only the variable domains are tied to this antibody; also called LC50002-003; hu-MAB<h-IL-13Ralpha>LC.5002-003 (DSM ACC2710)
B4: HuMab LC5002-002 (antibody, human IgG1, V domains shown)
VH: B3 VH with D10G, I12V, D84N, E89D, Y102S
VL: B2 VL with S31R, L33V, H94Y, P96W, L104V
notes: Human IgG1 kappa from a HuMab mouse hybridoma; Only the variable domains are tied to this antibody; also called hu-MAB<h-IL-13R alpha>LC.5002-002 (DSM ACC2709)

Each binder was assayed against T1, hIL-13Rα1:hFc chimeric protein (R&D …) (assay: SPR Biacore 3000, HuMab captured by anti-hFcγ, hIL-13Rα1:hFc as analyte, 1:1 Langmuir model).
Experimental: For interaction analysis a Biacore 3000 instrument was used. As running and reaction buffer, HBS-P (10 mM HEPES, 150 mM NaCl, 0.005% polysurfactant P, pH 7.4) at 25° C. was used. Capturing molecules (goat anti-human-IgG, Fcγ specifc) were amine-coupled at a concentration of 20 μg/ml at a flow rate of 5 μl/min for 20 minutes. HuMabs were injected at a concentration of 1 μg/ml at a flow rate of 10 μl/min for 1 minute. Blocking of the free goat anti human IgG, Fcγ was achieved by injecting human gamma globulin at 500 nM and 30 μl/min for 3 minutes. Analyte (hIL-13Rα1:hFc chimeric protein) was injected for two minutes at five concentrations between 5.63 nM and 90 nM and washed with HBS-P for five minutes. Regeneration of the surface was accomplished by two injections of 100 mM HCl for 1 min each. The chip, assay format and sequence of injections and kinetic data correspond to the description in table 2. Negative control data (e.g. buffer curves) were subtracted from sample curves for correction of system intrinsic baseline drift and for noise signal reduction. BiaEvaluation version 4.01 was used for analysis of sensorgrams and for calculation of affinity data. Kinetic data were calculated by fitting kinetic data to a 1:1 Langmuir binding model (Table 2).

Kd	koff	kon	Binder
< 0.0084 nM	1e-06 s⁻¹	119000 M⁻¹ s⁻¹	B1
0.018 nM	3.12e-06 s⁻¹	173000 M⁻¹ s⁻¹	B2
< 0.0065 nM	1.4e-06 s⁻¹	210000 M⁻¹ s⁻¹	B3

Each binder was assayed against T2, extracellular domain of hIL-13Rα1 … (assay: SPR Biacore 3000, C1 chip, HuMab captured by anti-hFcγ, cleaved hIL-13Rα1 as analyte, 1:1 Langmuir model).
Experimental: For interaction analysis, a Biacore 3000 instrument was used. Running and reaction buffer was HBS-P (10 mM HEPES, 150 mM NaCl, 0.005% polysurfactant P, pH 7.4) at 25° C. Capturing antibody molecules (anti-hFcγ) were amine-coupled at a concentration of 100 μg/ml at a flow rate of 5 μl/min for 20 minutes. HuMabs were injected at concentrations of 10 μg/ml at a flow rate of 10 μl/min for 30 seconds. Cleaved hIL-13Rα1 molecules (MW 40 kDa) were injected for 200 seconds at seven concentrations between 1.56 nM and 100 nM and washed with HBS-P for five minutes. Regeneration of the surface was accomplished by two injections of 100 mM HCl for 1 min each at a flow rate of […]. The chip, assay format and sequence of injections and kinetic data correspond to the description in the following Table 3. Kinetic data were calculated by fitting kinetic data to a 1:1 Langmuir binding model.

Kd	koff	kon	Binder
4.4 nM	0.00083 s⁻¹	190000 M⁻¹ s⁻¹	B1
0.22 nM	0.0003 s⁻¹	1.4e+06 M⁻¹ s⁻¹	B2
0.62 nM	0.00065 s⁻¹	1.1e+06 M⁻¹ s⁻¹	B4
0.39 nM	0.00051 s⁻¹	1.3e+06 M⁻¹ s⁻¹	B3

What follows are binders tested against T3, extracellular domain of IL-13Rα1 (R&D …) (assay: ELISA, immobilized extracellular domain of human IL-13Rα1, detection with anti-human kappa-POD, OD 405nm-492nm).
Experimental: To determine the ability of the antibodies of the invention to bind to recombinant IL-13Rα1, the extracellular domain of IL-13Rα1 (R&D Systems, UK) was dissolved in PBS (1 μg/ml) and allowed to adsorb to microtiter plates (NUNC Maxisorb) by incubation over night at 4° C. After washing the plates with washing buffer (WB=0.9% NaCl; 0.1% Tween® 20) unspecific binding sites were blocked by addition of 100 μl incubation buffer (IB=PBS with 1% crotein C and 0.1% Tween® 20) and incubation for 30 min at room-temperature (RT). Then, serially diluted HuMab and control antibodies (100 μl/well; dilutions in IB) were added and incubated for 1 hour at RT. The plates were again washed, and bound human antibodies were detected by incubation with peroxidase-conjugated rabbit anti-human kappa (DAKO, Denmark) in a final dilution of 1:500 in IB. Polyclonal goat anti-hIL-13Rα1 antibodies were detected with peroxidase-conjugated polyclonal donkey anti-goat IgG (Santa Cruz; dilution 1:1000 in IB). After incubation for 1 h at RT and a subsequent washing step, the plates were developed with ready-to-use ABTS® solution (Roche Diagnostics GmbH) at RT in the dark. Absorbance was measured at 405 nm after absorbance of the highest concentration reached a sufficient OD.

EC50 (read off the curve)	Binder
~0.8 nM	B1
~1 nM	B2
~1 nM	B4
1 to 2 nM	B3
